Reference: IntAct's records for PubMed 25096571

Biological target: FOXP3, Q9BZS1-1
Sequence (Q9BZS1 whole entry): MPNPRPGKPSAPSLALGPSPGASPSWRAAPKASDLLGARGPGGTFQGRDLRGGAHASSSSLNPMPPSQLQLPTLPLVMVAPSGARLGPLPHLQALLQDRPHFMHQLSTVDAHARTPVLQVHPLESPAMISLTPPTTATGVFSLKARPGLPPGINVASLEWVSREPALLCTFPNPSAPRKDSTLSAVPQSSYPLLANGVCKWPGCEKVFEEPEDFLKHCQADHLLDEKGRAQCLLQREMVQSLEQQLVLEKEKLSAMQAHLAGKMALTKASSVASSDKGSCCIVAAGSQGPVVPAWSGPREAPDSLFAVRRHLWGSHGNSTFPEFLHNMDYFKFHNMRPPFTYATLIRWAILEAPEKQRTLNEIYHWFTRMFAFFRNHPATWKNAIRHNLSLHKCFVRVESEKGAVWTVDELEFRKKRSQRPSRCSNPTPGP

Serine/threonine-protein kinase pim-1 (Homo sapiens), P11309-1 K67M
effect of a mutation on the interaction: disrupting interaction strength
